Source: patent US20230340152A1 (published 2023)
Residue numbers refer to the chain shown, from its start. Names and notes keep the numbering of the source.

What was measured:
Human CD73 ECD [1] = target: T1, Human CD73 ECD (human, UniProt P21589 27-549); experiment: cell-based or functional assay
T1 sequence: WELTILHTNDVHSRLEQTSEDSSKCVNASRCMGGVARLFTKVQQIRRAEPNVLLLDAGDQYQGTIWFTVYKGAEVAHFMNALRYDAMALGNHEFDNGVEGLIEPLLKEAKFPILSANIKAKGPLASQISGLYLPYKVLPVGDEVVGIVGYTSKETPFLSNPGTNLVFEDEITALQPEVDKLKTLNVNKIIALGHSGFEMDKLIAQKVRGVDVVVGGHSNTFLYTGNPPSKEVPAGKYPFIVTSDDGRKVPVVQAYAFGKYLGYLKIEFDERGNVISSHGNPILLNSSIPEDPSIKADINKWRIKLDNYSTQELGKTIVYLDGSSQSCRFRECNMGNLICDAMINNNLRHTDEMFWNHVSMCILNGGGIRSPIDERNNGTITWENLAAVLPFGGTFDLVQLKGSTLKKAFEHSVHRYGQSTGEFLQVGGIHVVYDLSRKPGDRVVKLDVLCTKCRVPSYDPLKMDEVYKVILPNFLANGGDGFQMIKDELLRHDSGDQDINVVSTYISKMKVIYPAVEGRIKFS

[2] = target: T2, Human CD73 on cells (MDA-MB-231, Jurkat CD73 knock-in, NCI-H322) (human, UniProt P21589 27-549); experiment: cell-based or functional assay
T2 sequence: T1 sequence

Human CD73 ECD [3] = target: T1, Human CD73 ECD; experiment: binding assay, format not stated
[4] = target: T2, Human CD73 on cells (MDA-MB-231, Jurkat …); experiment: cell-based or functional assay; remark: listed apart in the source
[5] = target: T2, Human CD73 on cells (MDA-MB-231, Jurkat …); experiment: FACS on MDA-MB-231 cells, vs CD730002SGMY
Human CD73 ECD [6] = target: T1, Human CD73 ECD; experiment: direct ELISA, normalized Fab supernatant, vs CD730010 GL9
Murine CD73 ECD = target: T3, Murine CD73 ECD (murine, UniProt Q61503 29-551, limits assumed); experiment: as above
T3 construct: extracellular domain; In-house recombinant ECD; also called murine CD73 extracellular domain; muCD73
T3 sequence (looked up): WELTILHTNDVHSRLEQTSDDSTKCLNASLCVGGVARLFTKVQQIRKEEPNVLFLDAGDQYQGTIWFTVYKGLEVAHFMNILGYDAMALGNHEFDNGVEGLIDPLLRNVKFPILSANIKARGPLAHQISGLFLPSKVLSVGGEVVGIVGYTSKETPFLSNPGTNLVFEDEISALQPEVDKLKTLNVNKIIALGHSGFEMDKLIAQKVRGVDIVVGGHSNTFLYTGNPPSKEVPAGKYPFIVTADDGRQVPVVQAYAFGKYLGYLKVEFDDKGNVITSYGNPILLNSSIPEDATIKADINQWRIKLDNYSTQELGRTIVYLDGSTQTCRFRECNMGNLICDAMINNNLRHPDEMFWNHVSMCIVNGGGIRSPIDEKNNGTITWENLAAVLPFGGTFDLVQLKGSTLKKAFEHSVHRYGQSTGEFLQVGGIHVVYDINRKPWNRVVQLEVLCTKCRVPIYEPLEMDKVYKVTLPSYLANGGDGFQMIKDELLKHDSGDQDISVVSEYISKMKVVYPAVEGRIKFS

[7] = target: T4, Cynomolgus CD73 on MK-1 cells (cynomolgus, UniProt A0A2K5V5U7 27-549); experiment: flow cytometry on cells
T4 construct: whole, on cells; also called MK-1 (cyno)
T4 sequence: T1 sequence with M199T, T350A, V466I

[8] = target: T5, Murine CD73 on cells (4T1, Jurkat mCD73 knock-in) (murine, UniProt Q61503 29-551); experiment: flow cytometry on cells
T5 construct: whole, on cells; also called 4T1 (murine)
T5 sequence (looked up): T3 sequence (looked up)

[9] = target: T2, Human CD73 on cells (MDA-MB-231, Jurkat …); experiment: flow cytometry on cells
Human CD73 ECD [10] = target: T1, Human CD73 ECD; experiment: SPR (Proteon)

B1: CD730047 (antibody, V domains shown)
VH: EVQLVQSGGGVVQPGRSLRLSCAASGFTFSSYGMHWVRQAPGKGLEWVAVISYDGSIKYYADSVKGRFAISRDNAKNTLYLQMNSLRREDTAMYYCASGLTGVAGALGVWGRGTLVTVSS
VL: QSVLTQPPSASGAPGQRVTISCSGSSSNIGSNTVNWYQRLPGAAPQLLIYNNDQRPSGIPDRFSGSKSGTSGSLVISGLQSEDEADYYCAAWDDSLSGNVFGTGTKVTVL
notes: IgG1-TM format; also called CD730047 antibody
Human CD73 ECD [1]
  Enzyme Inhibition, rCD73, 1/EC50 (nM): 0.001 nM⁻¹
[2]
  Enzyme Inhibition, MDA-MB-231, 1/EC50 (nM): 0.027 nM⁻¹
  Internalization, MDA-MB-231, 1/EC50 (nM): 0.001 nM⁻¹
Human CD73 ECD [3]
  1/EC50: 0 nM⁻¹

B2: CD730069 (antibody, V domains shown)
VH: EVQLLESGGGLVQPGGSLRLSCAASGFTFSEYQMGWVRQAPGKGLEWVSYIRSSGGQTIYADSVKGRFTISRDNSKNTLYLQMNSLRAEDTAVYYCARRTYSSGWHIDYWGQGTLVTVSS
VL: DIQMTQSPDSLSASVGDRVTITCRASQSISRYLNWYQQKPGKAPKLLIYGASSLQSGVPSRFSGSGSGTDFSLTISSLQLEDFATYYCQQSYRTPLTFGGGTKVEIQ
Human CD73 ECD [1]
  Enzyme Inhibition, rCD73, 1/EC50 (nM): 0.038 nM⁻¹
[2]
  Enzyme Inhibition, MDA-MB-231, 1/EC50 (nM): 0.0013 nM⁻¹
  Internalization, MDA-MB-231, 1/EC50 (nM): 0.038 nM⁻¹

B3: Phen0203 hIgG1 (antibody, V domains shown)
VH: EVQLVQSGGGVVQPGRSLRLSCAASGFRFSDFAMHWVRQAPGKGLEWVAGISYDGGNKYYADSVKGRFTISRDNSNNTLYLQMNSLRAEDTAVYYCAKDHGYSGYYGHLDYWGRGTLVTVSS
VL: not shown
[4]
  FabZAP internalization, EC50, MDA-MB-231: 0.0925 nM
  FabZAP internalization, maximum toxicity, MDA-MB-231: 91%

B4: CD730002SGMY CDRH2 G65R (Fab, V domains shown)
VH: EVQLLESGGGLVQPGGSLRLSCAASGFTFSSYAMSWVRQAPGKGLEWVSAISGSGGSTYYADSVKRRFTISRDNSKNTLYLQMNSLRAEDTAVYYCARDKGYYWYMDVWGQGTMVTVSS
VL: QSVLTQPPSVSVSPGQTASITCSGDKVGDKYASWYQQKPGQSPVLVIYEDTKRPSGIPERFSGSNSGNTATLTISGTQAMDEADYYCQAWDTSFWVFGGGTKLTVL
notes: format in the FACS read-out not clearly stated
[5]
  FACS signal, fold improvement over parental antibody: 1.3 fold

B5: CD730002SGMY CDRL2 P55H (Fab, V domains shown)
VH: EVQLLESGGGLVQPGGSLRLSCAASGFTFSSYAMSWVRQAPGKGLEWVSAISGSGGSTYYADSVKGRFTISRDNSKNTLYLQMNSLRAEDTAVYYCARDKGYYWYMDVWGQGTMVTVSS
VL: B4 VL with P54H
notes: format not clearly stated
[5]
  FACS signal, fold improvement over parental antibody: 1.5 fold

B6: CD730002SGMY CDRH2 A60G (Fab, V domains shown)
VH: B4 VH with A61G, R66G
VL: B4 VL
notes: as for B4
[5]
  FACS signal, fold improvement over parental antibody: 1.3 fold

B7: CD730002SGMY CDRH1 Y32V (Fab, V domains shown)
VH: B4 VH with Y32V, R66G
VL: B4 VL
notes: as for B4
[5]
  FACS signal, fold improvement over parental antibody: 1.2 fold

B8: CD730002SGMY CDRH2 T57P (Fab, V domains shown)
VH: B4 VH with T58P, R66G
VL: B4 VL
notes: as for B4
[5]
  FACS signal, fold improvement over parental antibody: 1.5 fold

B9: CD730002SGMY CDRH1 M34R (Fab, V domains shown)
VH: B4 VH with M34R, R66G
VL: B4 VL
notes: as for B4
[5]
  FACS signal, fold improvement over parental antibody: 1.1 fold

B10: CD730010 GL9 VH A50L Fab (Fab, name in Kabat numbering, V domains shown)
VH: EVQLLESGGGLVQPGGSLRLSCAASGFTFSSYAMSWVRQAPGKGLEWVSLISGSGGSTYYADSVKGRFTISRDNSKNTLYLQMNSLRAEDTAVYYCARLGYSTIDYWGRGTLVTVSS
VL: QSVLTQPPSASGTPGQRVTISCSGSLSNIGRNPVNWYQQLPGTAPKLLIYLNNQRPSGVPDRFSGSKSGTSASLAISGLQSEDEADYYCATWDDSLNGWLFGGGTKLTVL
notes: Bacterial Fab, normalized supernatant
Human CD73 ECD [6]
  ELISA signal, fold improvement over parental antibody: 4.2 fold
Murine CD73 ECD
  ELISA signal, fold improvement over parental antibody: 3 fold

B11: 73combo5 (G10+GRVE+HPT) (antibody, V domains shown)
VH: B10 VH with M34Y, L50A, G55W, S57R, S102G, T103R, I104V, Y106E
VL: QSVLTQPPSASGTPGQRVTISCSGSLSNIGRNDVNWYQQLPGTAPKLLIYLNNQRLGGVPDRFSGSKSGTSASLAISGLQSEDEADYYCATWDDSHPGWTFGGGTKLTVL
notes: IgG1-TM format; also called clone 10 combo5
[7]
  Kd: 0.078 nM
[8]
  Kd: 0.205 nM
[9]
  Kd: 0.169 nM
Human CD73 ECD [10]
  Kd: 0.007 nM

B12: C2 (IgG1-TM) (antibody, V domains shown)
VH: B10 VH with M34Y, S52W, G55W, Y106M
VL: B11 VL with D33P, N52D, Q54L, H96L, P97K, T100L
notes: IgG1-TM format; also called clone 10 C2
[7]
  Kd: 0.105 nM
[8]
  Kd: 0.067 nM
[9]
  Kd: 0.158 nM
Human CD73 ECD [10]
  Kd: 0.023 nM

B13: 73combo2 (C2+GRVE+HPT) (antibody, V domains shown)
VH: B10 VH with M34Y, S52W, G55W, S102G, T103R, I104V, Y106E
VL: B11 VL with D33P, N52D, Q54L
notes: IgG1-TM format; also called clone 10 combo2
[7]
  Kd: 0.074 nM
[8]
  Kd: 0.064 nM
[9]
  Kd: 0.166 nM
Human CD73 ECD [10]
  Kd: 0.005 nM

B14: G10 (IgG1-TM) (antibody, V domains shown)
VH: B10 VH with M34Y, L50A, G55W, S57R, Y106L
VL: B11 VL with H96L, P97K, T100L
notes: IgG1-TM format; also called clone 10 G10
[7]
  Kd: 0.258 nM
[8]
  Kd: 0.259 nM
[9]
  Kd: 0.354 nM
Human CD73 ECD [10]
  Kd: 0.009 nM

B15: CD730068 (antibody, V domains shown)
VH: EVQLLESGGGLVQPGGSLRLSCAASGFTFSNYIMGWVRQAPGKGLEWVSSISSSGGATIYADSVKGRFTISRDNSKNTLYLQMNSLRAEDMAVYYCAKDHLGGHGMDVWGQGTTVTVSS
VL: DIQMTQSPSSLSASVGDRVTITCRASQDISNYLAWFQQKPGKAPKSLIFAASSLESGVPSKFSGSGSGTDFTLTISSLQPEDSATYYCQQYNSYPLTFGGGTKVEIK
Human CD73 ECD [1]
  Enzyme Inhibition, rCD73, 1/EC50 (nM): 0 nM⁻¹
[2]
  Enzyme Inhibition, MDA-MB-231, 1/EC50 (nM): 0 nM⁻¹
  Internalization, MDA-MB-231, 1/EC50 (nM): 0 nM⁻¹

B16: CD730002SGMY CDRL2 T52S (Fab, V domains shown)
VH: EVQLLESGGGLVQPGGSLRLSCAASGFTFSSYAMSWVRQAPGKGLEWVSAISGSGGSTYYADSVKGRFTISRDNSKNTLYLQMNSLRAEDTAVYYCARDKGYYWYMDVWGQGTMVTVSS
VL: QSVLTQPPSVSVSPGQTASITCSGDKVGDKYASWYQQKPGQSPVLVIYEDSKRPSGIPERFSGSNSGNTATLTISGTQAMDEADYYCQAWDTSFWVFGGGTKLTVLL
notes: format not clearly stated
[5]
  FACS signal, fold improvement over parental antibody: 1.5 fold

B17: CD730002SGMY CDRL2 R54Y (Fab, V domains shown)
VH: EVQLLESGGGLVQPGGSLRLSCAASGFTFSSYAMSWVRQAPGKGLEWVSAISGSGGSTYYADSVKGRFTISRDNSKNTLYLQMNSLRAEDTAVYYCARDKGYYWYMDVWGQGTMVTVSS
VL: B16 VL with S51T, R53Y, L107V
notes: format not clearly stated
[5]
  FACS signal, fold improvement over parental antibody: 1.2 fold
